Where two headings read alike, the source gives them in different places. Each block holds one molecule with its values, some of them ahead of it.
Experiments:
[1] = target: LEF1/TCF-transcriptional factors; assay: cell-based or functional assay
TCF4 = target: T1, TCF4 (UniProt Q9NQB0 1-619, limits assumed); assay: co-immunoprecipitation with anti-TCF4 beads
T1 construct: Endogenous protein of HCT116 cells; also called endogenous TCF4
Experimental: Co-immunoprecipitation-The affinity-protein G beads were prepared by mixing 20 μl of protein G plus-Agarose beads (Santa Cruz Biotechnology) with 1 μg of corresponding antibody. A total of 2×10⁶ of cells were lysed with 1× cells lysis buffer (Promega) containing 1× protease inhibitor reagent (Roche), incubated on ice for 30 minutes, sonicated briefly, and centrifuged at 12,000 g for 5 minutes at 4° C. The supernatants were further cleaned with 20 μl of untreated protein G plus-Agarose beads and 2 μg of pre-immune serum for 2 hours at 4° C. The supernatants were then mixed with 20 μl of prelabeled protein G plus-Agarose beads at 4° C. overnight. The beads were washed four times with PBS plus 0.2% NP40.
Xom binds to LEF1/TCF factors in vivo and in vitro-Binding of LEF1/TCFs to the promoter of TOPflash is required for the activation of the reporter construct; thus, the finding that expression of Xom activates TOPflash but not FOPflash raised the possibility that Xom activates the TOPflash reporter through interaction with LEF1/TCFs. This hypothesis was tested by determining whether Xom physically interacts with LEF1/TCFs. Co-immunoprecipitation experiments was carried out in HCT116 cells transiently transfected with mye-Xom. […] The in vivo association between Xom and TCF4 appears to be strong and could not be dissociated with 300 mM NaCl and 0.1% NP40. […]

[2] = target: LEF1/TCF-transcriptional factors; assay: cell-based or functional assay; remark: listed apart in the source

T1 sequence (Q9NQB0 whole entry): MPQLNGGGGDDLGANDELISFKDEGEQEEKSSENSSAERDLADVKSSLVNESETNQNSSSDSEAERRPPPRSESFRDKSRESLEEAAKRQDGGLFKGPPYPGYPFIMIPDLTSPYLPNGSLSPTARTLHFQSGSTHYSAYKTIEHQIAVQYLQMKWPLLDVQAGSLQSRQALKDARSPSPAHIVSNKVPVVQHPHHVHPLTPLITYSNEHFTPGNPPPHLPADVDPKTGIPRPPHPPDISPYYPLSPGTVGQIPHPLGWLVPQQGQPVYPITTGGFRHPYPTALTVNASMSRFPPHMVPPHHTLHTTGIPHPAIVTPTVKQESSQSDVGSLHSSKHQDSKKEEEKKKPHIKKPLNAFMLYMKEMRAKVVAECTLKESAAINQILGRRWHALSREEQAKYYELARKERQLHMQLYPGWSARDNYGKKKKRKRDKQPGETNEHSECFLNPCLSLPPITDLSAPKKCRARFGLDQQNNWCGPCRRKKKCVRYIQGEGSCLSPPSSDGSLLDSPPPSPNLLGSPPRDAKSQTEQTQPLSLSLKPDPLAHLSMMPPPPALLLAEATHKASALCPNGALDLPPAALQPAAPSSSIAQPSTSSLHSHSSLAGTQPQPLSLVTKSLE

TOPflash reporter in 293T cells [1]: 10 fold | TOPflash reporter transcription in Xenopus embryos [1]: 7 fold
Molecule: Xom

binding result (TCF4): no binding
B1: XomID110 (other)
chain: MTKAFSSVEWLAQSSRRSHREQPSKVDQRYSPYPSPSLPSWNSDVSPSSWNSQLSPDPDSAQVSPCPASAQVSPYSSDSEISLYSHEEEASFYGMDLNTSSSPGDNGLLHSEMVSVPDNIPRASSDEDAAYHPAQFFGVYGYAQQPTPVFQHAVQHPYPGYNPLMETLPGTMPYTMHPPAMDSMTPFNSQPFQMLYLPQQHLGQPLTYQEERPFVR
notes: Internal deletion mutant of Xom lacking aa 131-240, which includes the homeodomain; also called XomID110 (fusion of aa 1-130 and aa 241-326)

TOPflash reporter in 293T cells [2]: 10 fold
B2: XomCD85 (protein)
chain: MTKAFSSVEWLAQSSRRSHREQPSKVDQRYSPYPSPSLPSWNSDVSPSSWNSQLSPDPDSAQVSPCPASAQVSPYSSDSEISLYSHEEEASFYGMDLNTSSSPGDNGLLHSEMVSVPDNIPRASSDEDAAKSAYSTSTDSGYESETSCSSSTAPEGDAISLSPNDTSDEEGKMGRRLRTAFTSDQISTLEKTFQKHRYLGASERQKLAAKLQLSEVQIKTWFQNRRMKYKREIQDGRPDSY

From patent US20080032927A1 (published 2008)
